For data set [1], the system named is HeLa Kyoto. The data set is described as follows: melting temperature (median over replicates), in situ; higher = more thermally stable.
Data set [2] relates to HeLa Kyoto. In words: solubility change mitosis vs G1/S (difference of NP-40 vs SDS log2 ratios) (log2 ratio difference); higher = more soluble in mitosis.
The test system of data set [3] is HeLa Kyoto. In words: thermal stability score vs G1/S (z-score of summed log2 fold changes over temperatures); higher = more thermally stable than in G1/S.
The subject of data set [4] is HeLa Kyoto. In words: solubility in G1/S (NP-40 vs SDS abundance) (log2 ratio); higher = more soluble. As to conditions: cell cycle stage: G1/S.
Where [5] appears, read: cell cycle stage: early G1 (4.5 h after nocodazole release).
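Wherever melting temperature (median over replicates), in situ is given: HeLa Kyoto cells synchronized by double thymidine or nocodazole block, proteins quantified by TMT10plex mass spectrometry, three independent biological replicates.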
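Wherever solubility change mitosis vs G1/S (difference of NP-40 vs SDS log2 ratios) is given: synchronized HeLa Kyoto cells (double thymidine block for G1/S, nocodazole release for mitosis), protein amounts in NP-40 versus SDS lysates quantified by mass spectrometry, three biological replicates.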
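Wherever solubility in G1/S (NP-40 vs SDS abundance) is given: HeLa Kyoto cells arrested at G1/S by double thymidine block, proteins quantified by TMT10plex mass spectrometry in mild NP-40 versus SDS extracts, three biological replicates.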
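Wherever thermal stability score vs G1/S (z-score of summed log2 fold changes over temperatures) is given: synchronized HeLa Kyoto cells, proteins quantified by TMT10plex mass spectrometry, three biological replicates, mitosis taken 0.5 h after nocodazole release, G1/S directly after double thymidine block.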

Regarding “MSGGASATGPRRGPPGLEDTTSKKKQKDRANQESKDGDPRKETGSRYVAQAGLEPLASGDPSASASHAAGITGSRHRTRLFFPSSSGSASTPQEEQTKEGACEDPHDLLATPTPELLLDWRQSAEEVIVKLRVGVGPLQLEDVDAAFTDTDCVVRFAGGQQWGGVFYAEIKSSCAKVQTRKGSLLHLTLPKKVPMLTWPSLLVEADEQLCIPPLNSQTCLLGSEENLAPLAGEKAVPPGNDPVSPAMVRSRNPGKDDCAKEEMAVAADAATLVDEPESMVNLAFVKNDSYEKGPDSVVVHVYVKEICRDTSRVLFREQDFTLIFQTRDGNFLRLHPGCGPHTTFRWQVKLRNLIEPEQCTFCFTASRIDICLRKRQSQRWGGLEAPAARVGGAKVAVPTGPTPLDSTPPGGAPHPLTGQEEARAVEKDKSKARSEDTGLDSVATRTPMEHVTPKPETHLASPKPTCMVPPMPHSPVSGDSVEEEEEEEKKVCLPGFTGLVNLGNTCFMNSVIQSLSNTRELRDFFHDRSFEAEINYNNPLGTGGRLAIGFAVLLRALWKGTHHAFQPSKLKAIVASKASQFTGYAQHDAQEFMAFLLDGLHEDLNRIQNKPYTETVDSDGRPDEVVAEEAWQRHKMRNDSFIVDLFQGQYKSKLVCPVCAKVSITFDPFLYLPVPLPQKQKVLPVFYFAREPHSKPIKFLVSVSKENSTASEVLDSLSQSVHVKPENLRLAEVIKNRFHRVFLPSHSLDTVSPSDTLLCFELLSSELAKERVVVLEVQQRPQVPSVPISKCAACQRKQQSEDEKLKRCTRCYRVGYCNQLCQKTHWPDHKGLCRPENIGYPFLVSVPASRLTYARLAQLLEGYARYSVSVFQPPFQPGRMALESQSPGCTTLLSTGSLEAGDSERDPIQPPELQLVTPMAEGDTGLPRVWAAPDRGPVPSTSGISSEMLASGPIEVGSLPAGERVSRPEAAVPGYQHPSEAMNAHTPQFFIYKIDSSNREQRLEDKGDTPLELGDDCSLALVWRNNERLQEFVLVASKELECAEDPGSAGEAARAGHFTLDQCLNLFTRPEVLAPEEAWYCPQCKQHREASKQLLLWRLPNVLIVQLKRFSFRSFIWRDKINDLVEFPVRNLDLSKFCIGQKEEQLPSYDLYAVINHYGGMIGGHYTACARLPNDRSSQRSDVGWRLFDDSTVTTVDESQVVTRYAYVLFYRRRNSPVERPPRAGHSEHHPDLGPAAEAAASQASRIWQELEAEEEPVPEGSGPLGPWGPQDWVGPLPRGPTTPDEGCLRYFVLGTVAALVALVLNVFYPLVSQSRWR [USP19]”, the melting temperature in data set [1] (cell cycle stage: G1/S) amounted to 51.1 °C; in data set [1] (cell cycle stage: mitosis), 51 °C. Besides, the “solubility change mitosis (log2)” value in data set [2] was -0.0948. Further, the thermal stability score in data set [3] (setting [5]) is -0.212; in data set [3] (cell cycle stage: mitosis), -0.109. In data set [4], the “solubility in G1/S (log2)” value was -0.0565.

Consider “MSGGLLKALRSDSYVELSQYRDQHFRGDNEEQEKLLKKSCTLYVGNLSFYTTEEQIYELFSKSGDIKKIIMGLDKMKKTACGFCFVEYYSRADAENAMRYINGTRLDDRIIRTDWDAGFKEGRQYGRGRSGGQVRDEYRQDYDAGRGGYGKLAQNQ [NCBP2]”, for which the melting temperature in data set [1] (cell cycle stage: G1/S) stood at 51.4 °C; in data set [1] (cell cycle stage: mitosis), 51.8 °C. For the same sequence, the “solubility change mitosis (log2)” value in data set [2] came to 0.26. Also, the thermal stability score was -0.145 in data set [3] (setting [5]) and -1.78 in data set [3] (cell cycle stage: mitosis). The “solubility in G1/S (log2)” value in data set [4] is -0.118.

As for “MSGNGNAAATAEENSPKMRVIRVGTRKSQLARIQTDSVVATLKASYPGLQFEIIAMSTTGDKILDTALSKIGEKSLFTKELEHALEKNEVDLVVHSLKDLPTVLPPGFTIGAICKRENPHDAVVFHPKFVGKTLETLPEKSVVGTSSLRRAAQLQRKFPHLEFRSIRGNLNTRLRKLDEQQEFSAIILATAGLQRMGWHNRVGQILHPEECMYAVGQGALGVEVRAKDQDILDLVGVLHDPETLLRCIAERAFLRHLEGGCSVPVAVHTAMKDGQLYLTGGVWSLDGSDSIQETMQATIHVPAQHEDGPEDDPQLVGITARNIPRGPQLAAQNLGISLANLLLSKGAKNILDVARQLNDAH [HMBS]”, the figures for the melting temperature in data set [1] (cell cycle stage: G1/S) and in data set [1] (cell cycle stage: mitosis) were 57.6 °C and 57.3 °C, respectively. For the same sequence, in data set [2], the “solubility change mitosis (log2)” value was -0.0671. Also, the thermal stability score in data set [3] (setting [5]) was -1.68; in data set [3] (cell cycle stage: mitosis) it was -1.79. For the same sequence, the “solubility in G1/S (log2)” value in data set [4] came out at 0.328.

For the sequence “MSGTNLDGNDEFDEQLRMQELYGDGKDGDTQTDAGGEPDSLGQQPTDTPYEWDLDKKAWFPKITEDFIATYQANYGFSNDGASSSTANVEDVHARTAEEPPQEKAPEPTDARKKGEKRKAESGWFHVEEDRNTNVYVSGLPPDITVDEFIQLMSKFGIIMRDPQTEEFKVKLYKDNQGNLKGDGLCCYLKRESVELALKLLDEDEIRGYKLHVEVAKFQLKGEYDASKKKKKCKDYKKKLSMQQKQLDWRPERRAGPSRMRHERVVIIKNMFHPMDFEDDPLVLNEIREDLRVECSKFGQIRKLLLFDRHPDGVASVSFRDPEEADYCIQTLDGRWFGGRQITAQAWDGTTDYQVEETSREREERLRGWEAFLNAPEANRGLRRSDSVSASERAGPSRARHFSEHPSTSKMNAQETATGMAFEEPIDEKKFEKTEDGGEFEEGASENNAKESSPEKEAEEGCPEKESEEGCPKRGFEGSCSQKESEEGNPVRGSEEDSPKKESKKKTLKNDCEENGLAKESEDDLNKESEEEVGPTKESEEDDSEKESDEDCSEKQSEDGSEREFEENGLEKDLDEEGSEKELHENVLDKELEENDSENSEFEDDGSEKVLDEEGSEREFDEDSDEKEEEEDTYEKVFDDESDEKEDEEYADEKGLEAADKKAEEGDADEKLFEESDDKEDEDADGKEVEDADEKLFEDDDSNEKLFDEEEDSSEKLFDDSDERGTLGGFGSVEEGPLSTGSSFILSSDDDDDDI [HTATSF1]”, the melting temperature came to 47.4 °C in data set [1] (cell cycle stage: G1/S) and 49.4 °C in data set [1] (cell cycle stage: mitosis). The “solubility change mitosis (log2)” value in data set [2] is -0.0715. In addition, the thermal stability score in data set [3] (setting [5]) is 5.21; in data set [3] (cell cycle stage: mitosis) it was 9.34. In data set [4], the “solubility in G1/S (log2)” value is -0.256.

Source of the values: the supplement of paper PMC5998384.
